Reference: patent US20250250357A1 (NANJING ZAIMING PHARMACEUTICAL, published 2025)
Residue numbers refer to the chain shown, from its start.

B1: S009-F3.23.1 (antibody, human IgG1, kappa, V domains shown)
VH: QVQLQQSGADLVRPGASVTLSCKASGYTFTDYEMHWVKQTPVHGLEWIGAIDPETGDTVYNQNFKGKAILTADKSSSTAYMELRSLTSEDSAVYYCTRYGYDWGWGQGTTLTVSS
VL: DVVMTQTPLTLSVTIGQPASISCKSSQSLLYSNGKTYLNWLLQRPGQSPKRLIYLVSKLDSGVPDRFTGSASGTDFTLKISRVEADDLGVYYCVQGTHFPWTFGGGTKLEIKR
notes: human-murine chimeric antibody, human IgG1/kappa constant regions
B2: S009-F3.45.21 (antibody, human IgG1, kappa, V domains shown)
VH: DVQLQESGPGLVKPSQSLSLTCSVTGDSITSGYYWNWIRQFPGNKLEWMGFIRFDGTNNYNPSLKNRISITRDTSKNQFFLKLNSVTTEDTATYYCAREGSYAPAWFAYWGQGTLVTVSA
VL: QIVLTQSPAIMSASPGEKVTMTCSASSSLSYMYWYQQKPGSSPRLLIYDTSNLASGVPVRFSGSGSGTSYSLTISRMEAEDAATYYCQQWSSYPPTFGGGTKLEIKR
notes: as for B1
B3: S009-F3.51.8 (antibody, human IgG1, kappa, V domains shown)
VH: QVQLQQSGAELVRPGASVTLSCKASGYTFTDYEMHWVKQTPVHGLEWIGGFDPETGGTAHNQKFKGKAILTADKSSSTAYMELRSLTSEDSAVYYCSNYGSIWGDCWGQGTSVTVSS
VL: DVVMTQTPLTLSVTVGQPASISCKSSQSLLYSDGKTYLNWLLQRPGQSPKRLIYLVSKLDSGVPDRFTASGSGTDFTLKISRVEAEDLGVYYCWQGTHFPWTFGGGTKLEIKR
notes: as for B1
B4: S009-F3.74.20 (antibody, human IgG1, kappa, V domains shown)
VH: RVQLQQSGAELVRPGASVTLSCKASGYTFTDSEMHWVKQTPVHGLEWIGAIDPEIDGTAYNQNFRDKAILTADKSSSTAYMELRSLTSEDSAVYYCTTYFGSGYGYFDVWGTGTTVTVSS
VL: DVVMTQTPLSLSVSLGDQASISCRSSQSLVYSNGNTYLHWFLQKPGQSPKLLIYKVSNRFSGVPDRFSGSGSGTDFTLKINRVEAEDLGVYFCSQSTHIPFTFGAGTKLELKR
notes: as for B1
B5: S009-F4-127.10 (antibody, human IgG1, kappa, V domains shown)
VH: EVQLQQSGPVLVKPGASVKMSCKASGYTFTDYYMNWVKQSHGKSPEWIGVINPYNDVISYNQKFKGKATLTVDKSSSTAYMELNSLTSEDSAVYYCANYGSSYYAMDYWGQGTSVTVSS
VL: B4 VL with Y31H, H39Q, F41S, K50N, N81S, S96T, I99V, A105G, L111I, K112R
notes: as for B1
B6: S009-F3.80.22 (antibody, human IgG1, kappa, V domains shown)
VH: QVQLQQSGAELVRPGASVTLSCKASGYTFTDYEIHWVKQTPVHGLEWIGAFDPEIGGSAYNQKFKDRATLTADKSSSTAYMELHSLTAEDSAVYYCTDYYGSSSGYFDVWGTGTTVTVSS
VL: B4 VL with S12P, V30E, Y31H, S32N, Q43H, N81S, I99V, A105S, L111I
notes: as for B1

Tests used:
[1] = biological target: T1, human MSLN-FL-his protein (human, UniProt Q13421 296-580); test: competitive ELISA; coated 2ug/ml F3.45.21
T1 construct: made in HEK293E cells, purified on nickel column; also called hMSLN-FL-his; human MSLN full-length protein; not shown: His tag

[2] = biological target: T1, human MSLN-FL-his protein; test: competitive ELISA; coated 2ug/ml F4-127.10
Protocol: (§1) In order to identify antigen-binding sites of antibodies, MSLN chimeric antibodies were grouped using competitive ELISA.
(§2) The chimeric antibodies were diluted to 2 μg/mL with PBS and allowed to coat 96-well high-adsorption ELISA plates at 50 μL/well. After the plates were coated at 4° C. overnight, 250 μL of a blocking buffer (PBS containing 2% (w/w) BSA) was added for two hours of blocking at room temperature. 40 μg/mL of the antibodies to be tested were added, and then the human MSLN-FL-His protein with an EC₈₀ concentration corresponding to each of the antibodies to be tested was added for incubation for 2 h. The plates were washed 5 times with PBS, an HRP-labeled anti-His secondary antibody (purchased from Genescript, Cat. No. A00612) was then added for incubation for 1 h, and the plates were washed 5 times again. A TMB substrate was added at 50 μL/well, and after 10 minutes of incubation at room temperature, a stop solution (1.0 M HCl) was added at 50 μL/well. OD₄₅₀ nm values were read using an ELISA plate reader (Insight, purchased from PerkinElmer), and the competition rate between the antibodies was calculated according to the OD₄₅₀ nm values using a formula.

[3] = biological target: T1, human MSLN-FL-his protein; test: competitive ELISA; coated 2ug/ml F3.74.20
Protocol: as §1, §2

[4] = biological target: T1, human MSLN-FL-his protein; test: competitive ELISA; coated 2ug/ml F3.51.8
Protocol: as §1, §2

[5] = biological target: T1, human MSLN-FL-his protein; test: competitive ELISA; coated 2ug/ml F3.23.1
Protocol: as §1, §2

[6] = biological target: T1, human MSLN-FL-his protein; test: competitive ELISA; coated 2ug/ml Tab108 (R3)
Protocol: as §1, §2

[7] = biological target: T1, human MSLN-FL-his protein; test: competitive ELISA; coated 2ug/ml F3.80.22
Protocol: as §1, §2

[8] = biological target: T1, human MSLN-FL-his protein; test: SPR (Biacore), antibody captured on Protein A chip;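 further: measured at 25 °C, analyte injected 240 s in five twofold dilutions from 200 nM, dissociation up to 600 s, double-referenced, fitted with Langmuir 1:1 model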
Protocol: The flow cell was set at 25° C. The sample block was set at 16° C. Both were pretreated with the running buffer. In each cycle, first, the antibody to be tested was captured using the Protein A chip, and then a single concentration of human MSLN-FL-his protein was injected. […] The association was determined by injecting different concentrations of human MSLN-FL-his in solution for 240 s on end, wherein the flow rate was 30 μL/min, and the protein was diluted in a 1:1 dilution ratio from 200 nM (see detailed results for actual concentrations tested) to obtain 5 concentrations in total. The dissociation phase was monitored for up to 600 s and triggered by switching from the sample solution to the running buffer. The surface was regenerated by washing with 10 mM glycine solution (pH 1.5) at a flow rate of 30 μL/min for 30 s. The difference in bulk refractive index was corrected by subtracting the responses obtained from the goat anti-human Fc surface. Blank injections were also subtracted (=double reference). To calculate the apparent KD and other kinetic parameters, the Langmuir 1:1 model was used.

[9] = biological target: T1, human MSLN-FL-his protein; test: competitive ELISA; coated 2ug/ml Tab142 (R1)
Protocol: as §1, §2

T1 sequence (Q13421 other isoform, or with tags, fused parts or gaps): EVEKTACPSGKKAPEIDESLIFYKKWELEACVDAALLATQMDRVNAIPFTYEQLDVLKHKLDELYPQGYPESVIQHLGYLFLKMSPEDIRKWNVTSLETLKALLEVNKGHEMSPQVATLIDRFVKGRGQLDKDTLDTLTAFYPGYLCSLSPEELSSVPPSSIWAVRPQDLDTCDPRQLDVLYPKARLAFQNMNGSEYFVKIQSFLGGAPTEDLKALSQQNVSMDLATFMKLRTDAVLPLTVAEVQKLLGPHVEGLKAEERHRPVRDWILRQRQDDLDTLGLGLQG

Row | Binder | competition rate [1] [%] | competition rate [2] [%] | competition rate [3] [%] | competition rate [4] [%] | competition rate [5] [%] | competition rate [6] [%] | competition rate [7] [%] | Kd [8] [nM] | koff [8] [s⁻¹] | competition rate [9] [%] | kon [8] [M⁻¹ s⁻¹]
1 | B1 | 89 | 31 | 93 | 94 | 95 | 35 | -36 | 689 | 0.000703 | -25 | –
2 | B2 | 92 | 37 | 96 | 96 | 99 | 32 | -26 | 1.5 | 0.00083 | -38 | 552000
3 | B3 | 98 | 78 | 101 | 102 | 101 | 46 | -17 | 142 | 0.00035 | -34 | 2470
4 | B4 | 94 | 33 | 98 | 96 | 100 | 34 | -15 | 4.92 | 5.04e-05 | -28 | 10300
5 | B5 | 84 | 16 | 91 | 87 | 88 | -37 | -5 | 171 | 0.000433 | -27 | 2530
6 | B6 | -67 | -22 | -12 | 43 | -109 | 35 | 63 | 151 | 0.000332 | 81 | 2200
